Source: paper PMC3552960

How the values were obtained:
[1] = molecular target: CCR5 Thr^2.56(82)Lys mutant receptor (human) (UniProt P51681)
[2] = molecular target: CCR5 Thr^2.56(82)Lys/Arg^6.32(225)Gln double-mutant receptor (human) (UniProt P51681)
[3] = molecular target: CCR5 Thr^2.56(82)Pro mutant receptor (human) (UniProt P51681)
[4] = molecular target: CCR5 Thr^2.56(82)Pro/Arg^6.32(225)Gln double-mutant receptor (human) (UniProt P51681)
[5] = molecular target: wild type human CCR5 chemokine receptor (human) (UniProt P51681)

For “HIV-1C Du151 gp150 envelope glycoprotein (Env), carboxy-terminally truncated (natural protein)”, the Env-directed cell fusion (luciferase) on HOS-CD4-Luc cells; maximum fusion [1] was 4.6 % wild type, the Env-directed cell fusion (luciferase) on HOS-CD4-Luc cells; maximum fusion efficiency (fusion coefficient) (fusion coefficient) [1] was 0.84 and the Env-directed cell fusion (luciferase) on HOS-CD4-Luc cells; maximum fusion [2] was 16.8 % wild type. For the same substance, the Env-directed cell fusion (luciferase) on HOS-CD4-Luc cells; maximum fusion efficiency (fusion coefficient) (fusion coefficient) [2] was 1.9, the Env-directed cell fusion (luciferase) on HOS-CD4-Luc cells; maximum fusion [3] was 135 % wild type and the Env-directed cell fusion (luciferase) on HOS-CD4-Luc cells; maximum fusion efficiency (fusion coefficient) (fusion coefficient) [3] was 16.5. It also gave an Env-directed cell fusion (luciferase) on HOS-CD4-Luc cells; maximum fusion [4] of 135 % wild type, an Env-directed cell fusion (luciferase) on HOS-CD4-Luc cells; maximum fusion efficiency (fusion coefficient) (fusion coefficient) [4] of 18.8 and an Env-directed cell fusion (luciferase) on HOS-CD4-Luc cells; maximum fusion efficiency (fusion coefficient: luciferase activity divided by mean fluorescence) (fusion coefficient) [5] of 11.8.
